# Experimental data taken from the DeepSol protein solubility set.
# Experiment: soluble on expression in E. coli; label from the status in PepcDB or PDB records
row,Sequence,soluble on expression in E. coli
1,MGSDKIHHHHHHMYLKETLDQFASIDNILKLLKKNPSFNKHCIQERLPQKTIITSNKQRKHIYIIEEGFMKLIFDDNKPRDFSYILSKGAFPFLPVYTEDIPEHTMMVALTDIVWWKIDISFFKGMMETEDPRNYLMLHQLAETRRRFYTIAYQEKLTSRESIYYSLSTMIEFGLRISEKIVELPEFLTYQILADHANTSKSYTSKVLGHLREEGILESQRKPWRINDVQKLQKLIEMNVPLVKIQKN,not soluble
2,MGSDKIHHHHHHMQATTATPHDIVFLFDCDNTLLDNDHVLADLRAHMMREFGAQNSARYWEIFETLRTELGYADYLGALQRYRLEQPRDTRLLLMSSFLIDYPFASRVYPGALNALRHLGARGPTVILSDGDVVFQPRKIARSGLWDEVEGRVLIYIHKELMLDQVMECYPARHYVMVDDKLRILAAMKKAWGARLTTVFPRQGHYAFDPKEISSHPPADVTVERIGDLVEMDAEWLLAEKR,not soluble
3,MGSDKIHHHHHHMNLAYLILAHNNPNHLQKLISSLDTSDVHFFVHIDGKSNILPFQANLISNKVTFVQERRNIFWGEFSIVQATIDLMKTALNKQDFDYLILISGSDYPLKNAQYIKDFFSKNKGSEFINLVELPNEQASKNLNRLYQYRISFSSKNIVLRAFRRVINCIINDLFHWQRNYRKSLGELKPYAGSQWWALSGDACNYILNFIAKNPEILKFFQTALIPDESFFHTILANSDFLTKVKPNLTFTKWNDTAHPEYITVEIVRDFKGMDAIYNHSIGGYGEVLFARKFAPDSDEVIKFINDNIA,not soluble
4,MVQHQMFDPGVADLLDTDILTSPSKRKRKLKIDDISTSDRSELEDYIVLENVYRMFGITFFPLVDPIDLKIKDASGEIFVDREMLGIRLEVFSERTSQFEKPHYVLLKKRIKSNSWFLFKHTIPSFIDVQGIFDDTNGGLVISHDDAYLFAKRVFLQLVEVQKRRQIFKDLEAKKIIHDLDLDLESSMVSFFVKDIKVELFVKQNEIVSCSILDDIHDFSQNNKSKWEIALLGSLDDLELKLNHSFATIFK,not soluble
5,MGSDKIHHHHHHMDLRGRLIPDYRIDTPVDAPLEYRPAVTWRCERCGKLPTRGPCTCGKRCYYCRHCLIFGKLRTCDRLVTDPRPLDPVRPDHHTELNLTSDQQRIAEAIVRTIDQRKRLLVHAVCGAGKTPMLFPGIERALSTNRRVLITAPRADVVRELTGHLRRAFQQATIVSLFGGSEDRLGIGDITISTTHQLIHYRACFDVVFIDEVDAFPYRTDRTLHRYVRQATAPGASLILLSATPSLRDRRLPTVRLMRRYHGFPLPTPRLQVPYGKHDVVDWVLTHAGKPRLLFVPQVEALETWQTCLQQQGITCETVHAADPDRITKVARFRQTTGVLLTTTILERGVTLINVQVAVLDADHSFSSAALIQISGRVGRSADFPEGDVVLFANDRSDAMYEAIDHIKRANREGFR,not soluble
6,MGHHHHHHSHMVISWHLASDMDCVVTLTTDAARRIYDETQGRQQVLPLDSIYKKTLPDWKRSLPHFRNGKLYFKPIGDPVFARDLLTFPDNVEHCETVFGMLLGDTIILDNLDAANHYRKEVVKITHCPTLLTRDGDRIRSNGKFGGLQNKAPPMDKLRGMVFGAPVPKQCLILGEQIDLLQQYRSAVCKLDSVNKDLNSQLEYLRTPDMRKKKQELDEHEKNLKLIEEKLGMTPIRKCNDSLRHSPKVETTDCPVPPKRMRREATRQNRIITKTDV,not soluble
7,MSLNANRPIINLDLDLLRTFVAVADLNTFAAAAAAVCRTQSAVSQQMQRLEQLVGKELFARHGRNKLLTEHGIQLLGYARKILRFNDEACSSLMFSNLQGVLTIGASDESADTILPFLLSRISSVYPKLALDVRVKRNAYMVDMVKSQEVDLVVTTNQPHSLDCLNLRTSPTHWYCAAEYVLQRGEPVPLVLLDDPSPFRDMVLETLNAAGIPWRLAYVASTLPAVRAAVKAGLGVTARPVEMMSPDLRVLGAADGLPPLPDTEYLLCRDPNSQNELAMVIFHAMESYQNEGHHHHHH,soluble
8,MAHHHHHHMVGAMHDIQVGFLDRCSVFQFTLTCTVLDFQKVAEPQPKSPGSLPSSTRTAPNPNGEEVEKHINKEQYTVRCLGSEAYTEALKNYLDDGCIVRVIGRLKTTEVVDAGKKQPFPCIIVEQGRWSTVSLVHSLRKQRRDWQLQNILTSVATLE,not soluble
9,NKYDWFEFFLNCGVDVSNCQRYTINFDREQLTEDMMPDINNSMLRTLGLREGDIVRVMKHLDKKFGRENIAS,soluble
10,PRRGPVAKRDVLPDPIYNSKLVTRLINKIMIDGKKSKAQKILYTAFDIIRERTGKDPMEVFEQALKNVMPVLEVRARRVGGANYQVPVEVRPDRRVSLGLRWLVQYARLRNEKTMEERLANEIMDAANNTGAAVKKREDTHKMAEANKAFAHYRW,soluble
11,MFVDQVKVYVKGGDGGNGMVAFRREKYVPKGGPAGGDGGKGGDVVFEVDEGLRTLMDFRYKKHFKAIRGEHGMSKNQHGRNADDMVIKVPPGTVVTDDDTKQVIADLTEHGQRAVIARGGRGGRGNSRFATPANPAPQLSENGEPGKERYIVLELKVLADVGLVGFPSVGKSTLLSVVSSAKPKIADYHFTTLVPNLGMVETDDGRSFVMADLPGLIEGAHQGVGLGHQFLRHIERTRVIVHVIDMSGLEGRDPYDDYLTINQELSEYNLRLTERPQIIVANKMDMPEAAENLEAFKEKLTDDYPVFPISAVTREGLRELLFEVANQLENTPEFPLYDEEEL,soluble
12,AHHHHHHGSPPIIDPHILRSLHRSELRRRILHYLYEIYPSATYLSEIARVVSSDPSNVRGALVGLGNRYNSESSLVYLGLVEEIVNNGFKYYRLTEYGKKVVEMLKDYQTYYRKFM,not soluble
13,MGSDKIHHHHHHMDSFHSFNQHAFNRHAKTYHLFAHIQQQIAICLVQFLKQKHYAKVLDLGSGSGAVFNALERQNILIEEFIALDNSINMLKLHPTHSINIQKISLEHADFEEHVFCTYDLVVSSSSLQWARDLKSVLEKIALSSKEVALAIHTDFSLHEVHEFLGTPSPLRDLKTLKSLIKNAFKHFQIELENKRFALYFNRKQDCLNYLKKCGLLGGSTLSFKQKKHFFQNMAFEKLSYEVLLFSGIKRS,not soluble
14,MHIDNVVFMKKVLDASAFINGYVPEGRENYTVRSVTEEIRDFRSMMILEDALREGRLKITEPDPESMKVVEDAISESGDIMRLSPTDMEVIGLAVSLRGKDDVTVITDDYTIQNTLKILGIGFRSVLTSGIRDTYSWRRVCTGCRRVYPLDYEFEECEICGSRIVRKRHRNLEHHHHHH,soluble
15,DQRRRFIEAVLSGVTAAVIGVGRDRRITIFNPSSEGMLKKAAPELIGANLSDVAPEIEAVLVEAESRYRNDYRKQINIMRGGTERTMNVQVTREEGDESHGSYVITVDDIT,not soluble
16,LEQLSMNLLDGALRIEHFALPQTKVAYLHLSQINFEQILALLKYQQIELKGRANATFPFWIEGKPCYVCNGSMAQAVSSRLKIAPELMQAISQSNGYSERLLAYLLHDTRITDLTSKVNINSEGEMALQAKLNMQLNQQAQTKINFNYHHQENVFKLWRTLNAGTYVEQNFENSIYQKLDRTNE,not soluble
17,MGSDKIHHHHHHMSVTINDTSSASSTQGLSSTTAVEKNSSADLQNQFLTLLVAQLKNQDPTNPMSNDQLVSQLAQLNTVSGIEKLNTTLGSISGQINNNQSMQASTLIGHSVMIPGKDILVGKETSTPFGVELEKAAEVVTVTVNDATGKAVRTIELGTLSAGVHSFNWDSKLADGTVAPDGAYTFTVAASTGGAQQVVQPLSYAVVNSVVRGDSGALLDLGLRGKATLDDVRQIL,not soluble
18,MDKQSLHETAKRLALELPFVELCWPFGPEFDVFKIGGKIFMLSSELRGVPFINLKSDPQKSLLNQQIYPSIKPGYHMNKKHWISVYSGEEISEALLRDLINDSWNLVVDGLAKRDQKRVRPG,not soluble
19,MGSDKIHHHHHHMHLDLLICSKPFIFNKVVDTKPFYQRTIMYKHTVSQHVFTFDSLTELMAKASPLRSGDQLAGIAAGSYQERIAAQMALADLPLTTFLQEPLIPYESDEVTRLIFDTHEHTAFTAIAHLTVGDFRNFLLSNNTHTSQLTALQKAITPEMAAAVSKIMNVQDLILVSSKCEIITRFRNTIGVKGCMSTRLQPNHPTDDLKAIMASVLDGLFYGSGDAVIGINPATDHISTQVQLLKLIDAVREQYAIPTQSCILSHITNTILAIEQGAPVDLVFQSIGGTEKTNSSFGINLSLLQEGYEAALSLGRGTIGNNVMYFETGQGSSLSANAHYGIDQQTLEARAYAVARAFNPLLVNTVVGFIGPEYLFDGKQIIRAGLEDHFCGKLMGLPMGCDICYTNHADADQDDMDALLTLLGVAGCNFIMGVPGSDDIMLNYQSTSFHDALYIRKLLNVKPAPEFEEWLLKMGIMNTQHEITVHRIYCG,not soluble
20,MKAAAREEAKNIKLLETTEEDKQKNFLFLRLWDRNMDIAMGWKGAQAMQFGQPLVFDMAYENYMKRKELQNTVSQLLESEGWNRRNVDPFHIYFCNLKIDGALHRELVKRYQEKWDKLLLTSTEKSHVDLFPKDSIIYLTADSPNVMTTFRHDKVYVIGSFVDKSMQPGTSLAKAKRLNLATECLPLDKYLQWEIGNKNLTLDQMIRILLCLKNNGNWQEALQFVPKRKHTGFLEISQHSQEFINRLKKAKT,not soluble
21,MSTETDSILAAFEKFNTIIIHRHINPDPDAIGSQTGLALLLRAAYPAKTIYTAGPAAPDLAWIGPQQQVSAEAYTGALVVVIDTSNRERIAGDHFDQGAMLIKIDHHLDEDQLGTINWVDTHASSASEMVWDLVRHSPQLQLTKAAATALYAGIIGDTGRFLYDLTTARTHQAAADLLATGIDAAAIGRQEDQFPENVGRLIGWALENVKITDTGAGSLLITKAVLAQFGLAYGEEQRAVGNIGKLASIDRWVVFTERTDGSYRVELRGKTKEINTLAVQHGGGGHPLASGAVADNAAELHAIEEELASLLEHHHHHH,soluble
22,MQAVNTTSGGAVGVDRKQYMFSMLSSQEVDQMYAQSYQKTLGEAKSAGVLDTSSADARRVKAIAQRLIPQTAAFRPDATGWNWEVNVVKSDELNANCGPGGKIIFYTGLIDKLKLTDDEIAAVMGHEIAHALREHGREAMSKAYGVQVASQIGALAGLGQESLQLANTGVDYLMTLPNSRANENEADLIGLELAARAGYNPEAAITLWQKMGRASGGASQPEFTSTHPSDSSRMANLQAAIPKVMPLYQQARRGKLEHHHHHH,soluble
23,MILMAIGLLMGSYYAVEWYKGKSSAQELTNEEIKSFKNIQHNQLPYETLVTSQVPSSQTEHKEGEKVAMLNIPKLKKKFSIYWGADDATLKKGVGMFVSDVTTTPSGGGHTVLSGHRDTVFTDLGQLKEKDTLVLEYDNKTYTYEIQKIWITHADDRTVIIKKEEPILTLTTCYPFDYIGDAPDRYIIEAKLTGSYSK,not soluble
24,MRGSHHHHHHGLVPRGSMIRTMLQGKLHRVKVTHADLHYEAGSCAIDQDFLDAAGILENEAIDIWNVTNGKRFSTYAIAAERGSRIISVNGAAAHCASVGDIVIIASFVTMPDEEARTWRPNVAYFEGDNEMKRTAKAIPVQVA,soluble
25,MNFIFDIDGTICFDGCSIDSSIKQRLFKLRQANHNVIFASARPIRDLLPVIPEFADDTLIGGNGSIISKNGQIEIVSVINEHDISLIKKIIKKYQLSYIIDDKFNYASNLDSNNELYQRIDPDGKAQSLDMDEIRNPIKAILLNIDNKDFDMIAHQLVSQSHGIELIRHYSESYIDVTARGVDKYTTIQYILGTNSDYIAFGNDHNDVHMLEHASQGYFVTNQFIEHTSFFKNKNITVIDDTIYAICEVLDRYL,not soluble
26,SESKKRELFSQIKDLKGTSGNVALLELGCGTGANFQFYPQGCKVTCVDPNPNFEKFLTKSMAENRHLQYERFIVAYGENMKQLADSSMDVVVCTLVLCSVQSPRKVLQEVQRVLRPGGLLFFWEHVAEPQGSRAFLWQRVLEPTWKHIGDGCHLTRETWKDIERAQFSEVQLEWQPPPFRWLPVGPHIMGKAVK,soluble
